For orientation: Kd means a measure of binding affinity in units of concentration. Read a low Kd as a tighter complex.

This note sets out measurements from patent publication US20190367626A1.

Numbering of substitutions follows the chain as printed.

The test concerns the target TRAILshort (UniProt P50591). Description: SPR. On the technique in general: Surface plasmon resonance follows binding to a sensor surface in real time, without labels.

TRAILshort, sequence (P50591 other isoform, or with tags, fused parts or gaps): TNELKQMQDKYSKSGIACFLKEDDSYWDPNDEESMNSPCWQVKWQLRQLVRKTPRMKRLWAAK

B1: HC1LC3 (antibody, human IgG1, kappa, V domains shown)
VH: QVQLVQSGAEVKKPGATVKISCKVSGYIFTNNDMNWVQQAPGKGLEWMGGIDPGDGRTKYNEKFKGRVTITADESTSTAYMELSSLRSEDTAVYYCGRGGYEFGIDYWGQGTLVTVSS
VL: DIVMTQSPDSLAVSLGERATINCKSSQSLLNSGNQKNSLAWYQQRPGHPPKLLLYGASTRESGVPDRFSGSGSGTDFTLTISSLQAEDVAVYYCQNDHSFPLTFGGGTKVEIKR
In the case of B1, the Kd was found to be 10 pM.

B2: HC2LC3 (antibody, human IgG1, kappa, V domains shown)
VH: QVQLVQSGAEVKKPGASVKVSCKASGYIFTNNDMNWVRQAPGQGLEWMGGIDPGDGRTKYNEKFKGRVTMTRDTSTNTVYMELSSLTSEDTAVYFCGRGGYEFGIDYWGQGTTVTVSS
VL: B1 VL
Molecule B2 returned a Kd of 3.8 pM.

B3: HC3LC3 (antibody, human IgG1, kappa, V domains shown)
VH: QVQLVQSGAEVKKPGSSVKVSCKSSGYIFTNNDMNWVRQAPGQGLDWMGGIDPGDGRTKYNEKFKGRVTISADIFSNTAYMELNSLTSEDTAVYFCGRGGYEFGIDYWGQGTTVTVSS
VL: B1 VL
For the molecule B3, the Kd amounted to 4.5 pM.

B4: HC4LC3 (antibody, human IgG1, kappa, V domains shown)
VH: B2 VH with Q6E, A24V, Q43E, R72E, N77D, V79A, T87R, F95Y
VL: B1 VL
On to B4, for which the Kd came to 31 pM.

B5: HC0LC0 (antibody, human IgG1, kappa, V domains shown)
VH: QVQLQQSGPELVKPGASVKISCKASGYIFTNNDMNWVKQRPGQGLEWIGGIDPGDGRTKYNEKFKGKATLTADKFSNTVYMQLSSLTSENSAVYFCGRGGYEFGIDYWGQGTSVTVSS
VL: DIVMTQSPSSLSVSAGEKVTMSCKSSQSLLNSGNQKNSLAWYQQKPGRPPTLLISGASTRESGVPDRFTGSGSGTDFTLTISSVQAEDLAVYYCQNDHSFPLTFGAGTKLELKR
Turning to B5, the Kd was determined as 3 pM.
